According to publication PMC3285272 (Cell, 2012):

Columns and labels:
[1] = molecular target: T1, βδ-COP dimer with full-length β-COP L124E (R. norvegicus | B. taurus, UniProt P23514 1-953; P53619 1-511, L124E); assay: pull-down
T1 sequence (looked up) 1: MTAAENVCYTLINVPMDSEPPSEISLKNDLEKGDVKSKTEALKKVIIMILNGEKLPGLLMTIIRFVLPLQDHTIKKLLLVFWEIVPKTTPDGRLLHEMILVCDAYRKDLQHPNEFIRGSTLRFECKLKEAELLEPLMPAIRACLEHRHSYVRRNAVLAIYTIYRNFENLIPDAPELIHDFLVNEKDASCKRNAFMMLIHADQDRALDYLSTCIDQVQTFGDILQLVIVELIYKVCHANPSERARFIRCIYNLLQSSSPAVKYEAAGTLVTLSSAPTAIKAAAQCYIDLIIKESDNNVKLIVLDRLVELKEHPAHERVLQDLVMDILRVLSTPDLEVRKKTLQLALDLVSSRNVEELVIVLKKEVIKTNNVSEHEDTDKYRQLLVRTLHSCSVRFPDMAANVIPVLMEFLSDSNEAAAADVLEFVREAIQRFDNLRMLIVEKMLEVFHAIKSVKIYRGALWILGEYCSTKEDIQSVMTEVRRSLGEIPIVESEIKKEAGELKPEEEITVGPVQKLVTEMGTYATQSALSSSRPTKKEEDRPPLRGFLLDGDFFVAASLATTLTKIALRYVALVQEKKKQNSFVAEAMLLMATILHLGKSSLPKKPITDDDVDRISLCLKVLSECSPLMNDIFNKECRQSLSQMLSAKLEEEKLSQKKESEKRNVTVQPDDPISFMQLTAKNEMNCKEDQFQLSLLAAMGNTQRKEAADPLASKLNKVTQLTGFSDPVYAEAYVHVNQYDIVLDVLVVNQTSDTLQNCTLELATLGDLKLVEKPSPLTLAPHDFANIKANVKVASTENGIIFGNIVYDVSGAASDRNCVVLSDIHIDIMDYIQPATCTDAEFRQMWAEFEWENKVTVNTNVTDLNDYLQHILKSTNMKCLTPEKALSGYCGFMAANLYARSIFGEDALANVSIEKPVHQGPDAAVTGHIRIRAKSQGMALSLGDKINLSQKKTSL
T1 sequence (looked up) 2: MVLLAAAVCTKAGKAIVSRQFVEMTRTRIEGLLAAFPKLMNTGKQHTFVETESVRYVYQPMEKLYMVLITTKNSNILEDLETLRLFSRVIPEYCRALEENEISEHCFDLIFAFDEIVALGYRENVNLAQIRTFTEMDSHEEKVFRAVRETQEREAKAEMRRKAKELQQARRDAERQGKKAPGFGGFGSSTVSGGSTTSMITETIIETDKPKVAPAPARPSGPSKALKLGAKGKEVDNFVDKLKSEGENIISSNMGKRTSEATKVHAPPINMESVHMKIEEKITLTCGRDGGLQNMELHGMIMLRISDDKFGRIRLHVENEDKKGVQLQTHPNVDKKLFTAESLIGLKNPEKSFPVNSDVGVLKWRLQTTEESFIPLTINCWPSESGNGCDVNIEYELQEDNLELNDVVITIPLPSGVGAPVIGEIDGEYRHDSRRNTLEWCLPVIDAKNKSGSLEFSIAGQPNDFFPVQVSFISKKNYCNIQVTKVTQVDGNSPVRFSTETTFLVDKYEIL

[2] = molecular target: full-length βδ/γζ-COP complex (R. norvegicus | B. taurus, UniProt P23514 1-953; P53619 1-511; P53620 1-874; P35604 1-177); assay: pull-down

binding result [1]: binds
binding result [2]: binds
B1: S. cerevisiae Arf1 (residues 18–181) with a C-terminal GST tag (domain or fragment, UniProt P11076 18-181, looked up)
chain: MRILMVGLDGAGKTTVLYKLKLGEVITTIPTIGFNVETVQYKNISFTVWDVGGQDRIRSLWRHYYRNTEGVIFVVDSNDRSRIGEAREVMQRMLNEDELRNAAWLVFANKQDLPEAMSAAEITEKLGLHSIRNRPWFIQATCATSGEGLYEGLEWLSNSLKNST
